In article PMC5477490:

Experiments:
[1] = target: HA ectodomain of A/Washington/05/2011(H1N1) (influenza A virus A/Washington/05/2011(H1N1)); assay: not stated; purified HA ectodomain in solution; data in Supplementary Fig. 2
[2] = target: HA ectodomain of A/Washington/05/2011(H1N1) (influenza A virus A/Washington/05/2011(H1N1)); assay: crystal structure
3E1 Fab, P01857;P01834 = settings: parent: est. 100; read off a plot

| Substance | stoichiometry N [1] | stoichiometry N [2] | percent of parent (3E1 Fab, P01857;P01834) [%] |
| --- | --- | --- | --- |
| HA ectodomain of A/Washington/05/2011(H1N1) (domain or fragment) | 3 | 3 |  |
| full-length, wild-type HA from A/Washington/05/2011 (H1N1) HA1:H18Q |  |  | 1 |
| full-length, wild-type HA from A/Washington/05/2011 (H1N1) HA1:NAT |  |  | 2 |
| full-length, wild-type HA from A/Washington/05/2011 (H1N1) HA2:D19N |  |  | 7 |
| full-length, wild-type HA from A/Washington/05/2011 (H1N1) HA2:I45F |  |  | 1 |
